Test results reported in article PMC6660772.

B1: KAP1 RBCC (residues 50-413), wild type [human] / itself (parent)
chain: SPAGGGAEALELLEHCGVCRERLRPEREPRLLPCLHSACSACLGPAAPAAANSSGDGGAAGDGTVVDCPVCKQQCFSKDIVENYFMRDSGSKAATDAQDANQCCTSCEDNAPATSYCVECSEPLCETCVEAHQRVKYTKDHTVRSTGPAKSRDGERTVYCNVHKHEPLVLFCESCDTLTCRDCQLNAHKDHQYQFLEDAVRNQRKLLASLVKRLGDKHATLQKSTKEVRSSIRQVSDVQKRVQVDVKMAILQIMKELNKRGRVLVNDAQKVTEGQQERLERQHWTMTKIQKHQEHILRFASWALESDNNTALLLSKKLIYFQLHRALKMIVDPVEPHGEMKFQWDLNAWTKSAEAFGKIVAERP

Variants of: B1
Experiment: SEC-MALS
Settings: with itself; mutant 179 µM; WT 159 µM; read off a plot

Row | screen value [kDa] | Variant
1 | 95 | chain 1 A111D T114A E126R
